Several values for one entry are separate records, joined by “and”; a condition that tells them apart may be missing. Equal values may be shown once. Read-outs that look alike come from different tables or passages of the source.
Columns and labels:
Go [1] = molecular target: T1, Go (Bos taurus, UniProt P08239)
Procedure: Trimeric Go was purified to homogeneity from bovine brain as described (Katada et al., FEBS Lett. 213:353-358, 1987). This Go preparation was stored in 20 mM Hepes/NaOH (pH 7.4), 1 mM EDTA, and 0.7% CHAPS, and diluted ≥10 fold for assays.
GTPγS binding to Go was assayed in a buffer containing 50 mM Hepes/NaOH (pH 7.4), 100 μM EDTA, 120 μM MgCl2, and 60 nM [^35 S]GTPγS (DuPont-New England Nuclear) at 37° C., and the fraction of total Go bound to GTPγS was measured as described (Okamoto et al., Cell 62:709-717, 1990). […] The total amount of Go in a given preparation was defined as the saturation amount of GTPγS bound to Go following a 30-min incubation of Go with 10 mM Mg^2+ and ≥60 nM GTPγS at 30° C.
In the experiment shown in FIG. 1(b), 10 nM Go was incubated with water or 100 μM of each peptide for 2 min, and the amount of GTPγS bound to Go at the end of this period was measured. In the experiment shown in FIG. 1(c), 10nM Go was incubated with water (O) or 100 μM peptide 20 (SEQ ID NO: 1) (.oval-solid.), and GTPγS binding was measured at the indicated times. […] GTPγS binding to Go in the presence or absence of peptide 20 (SEQ ID NO: 1) obeyed first-order kinetics according to the equation
(B is the binding at time t; BT is the total binding observable at infinite time; and kapp is the rate constant for GTPγS binding).
In this experiment, 10 nM Go was incubated with various concentrations of [sequence] (peptide 20, SEQ ID NO: 1; .quadrature.), [sequence] (H-deleted, SEQ ID NO: 14; .diamond.), [sequence] (HH-deleted, SEQ ID NO: 15; .quadrature.), [sequence] (RHLSK-deleted, SEQ ID NO: 16; .diamond-solid.), or [sequence] (KQYTSI-added, SEQ ID NO: 17; .box-solid.), and GTPγS binding to Go at 2 min. was measured.

[2] = molecular target: Trimeric Go purified from bovine brain (bovine) (UniProt P08239); test: 22C11-precipitate of Sf9 membranes incubated with 1 µg purified Go, immunoblot
[3] = tested on: Go reconstituted in phospholipid vesicles; test: GTPγS binding to Go reconstituted in phospholipid vesicles; format: biochemical, bovine; details: FIG. 1(e)
Procedure: (§1) Biophys. Acta 161:1280-1285, 1989.
GTPγS binding to peptides was negligible.
Reconstitution of Go into phospholipid vesicles was accomplished with 1 mg/ml of phosphatidylcholine, using the gel filtration method (Nishimoto et al., J. Biol. Chem. 264:14029-14038, 1989). In a final incubation for GTPγS binding, 5 nM of reconstituted Go was used.
As illustrated in FIG. 1(e), Go reconstituted in phospholipid vesicles was incubated with transmembrane region-connected peptide 20 ([…], SEQ ID NO: 18; .quadrature.) or the partial sequence of the APP transmembrane domain alone (TVIVITLVML, SEQ ID NO: 7; .quadrature.). Transmembrane region-connected peptide 20 (SEQ ID NO: 18) was also incubated with Go in the absence of phospholipids and the presence of 0.07% CHAPS (.diamond-solid.). The transmembrane region-connected peptide 20 (SEQ ID NO: 18) stimulated Go reconstituted in phospholipid vesicles with a potency 10 times greater than that of peptide 20 (SEQ ID NO: 1). […]
Preactivation of pertussis toxin (Funakoshi, Japan) was carried out by treating the toxin with 100 μM ATP and 1 mM DTT for 10 min at 30° C. […] Increasing concentrations of peptide 20 (SEQ ID NO: 1) were incubated for 2 min with Go reconstituted in phospholipid vesicles which had been treated with pertussis toxin in the presence (.diamond-solid.) or absence (.quadrature.) of NAD, and GTPγS binding to Go was measured.

APP-Go complex = molecular target: T2, APP-Go complex (Bos taurus, UniProt P08239); test: 22C11 (anti-APP) immunoprecipitation of APP and co-precipitation of Go from solubilized brain membranes; format: binding, bovine; details: 10 μM peptide, FIG. 2d
T2 construct: APP immunoprecipitated with 22C11, co-precipitated Go alpha detected by GC/2
T2 sequence (P08239 whole entry): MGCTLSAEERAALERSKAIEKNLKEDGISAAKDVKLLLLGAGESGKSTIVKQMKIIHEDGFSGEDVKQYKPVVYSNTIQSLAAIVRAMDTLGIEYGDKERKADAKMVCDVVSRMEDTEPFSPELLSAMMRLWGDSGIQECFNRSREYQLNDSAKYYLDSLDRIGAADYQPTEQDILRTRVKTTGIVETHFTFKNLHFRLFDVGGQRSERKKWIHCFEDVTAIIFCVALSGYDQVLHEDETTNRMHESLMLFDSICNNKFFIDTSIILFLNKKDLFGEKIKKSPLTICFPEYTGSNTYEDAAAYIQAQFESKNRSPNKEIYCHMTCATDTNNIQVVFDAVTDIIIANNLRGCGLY
T2 sequence (Q28053 whole entry partner): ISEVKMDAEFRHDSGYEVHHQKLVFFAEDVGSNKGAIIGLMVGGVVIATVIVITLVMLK
T2 sequence (P62871 whole entry partner): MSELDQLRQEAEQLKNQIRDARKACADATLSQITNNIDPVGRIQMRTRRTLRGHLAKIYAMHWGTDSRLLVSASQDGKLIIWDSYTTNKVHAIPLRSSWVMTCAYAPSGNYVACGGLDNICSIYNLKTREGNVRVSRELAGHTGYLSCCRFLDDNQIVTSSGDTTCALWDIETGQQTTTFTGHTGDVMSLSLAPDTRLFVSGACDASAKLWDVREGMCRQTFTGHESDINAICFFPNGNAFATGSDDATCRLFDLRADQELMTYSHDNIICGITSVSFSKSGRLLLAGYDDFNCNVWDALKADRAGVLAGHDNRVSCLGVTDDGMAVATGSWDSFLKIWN
T2 sequence (P63212 1-68 partner): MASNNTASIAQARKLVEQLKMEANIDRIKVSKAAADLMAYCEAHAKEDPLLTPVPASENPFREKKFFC
Procedure: As a control, 2 μg/ml of rabbit IgG was used. After overnight shaking at 4° C., the immunoprecipitated sample was centrifuged at 5000 rpm for 5 min. The pellet was washed three times with ice-cold buffer C and the final pellet was applied to SDS-PAGE. Electroblotting onto a PVDF sheet was performed as described (Okamoto et al., J. Biol. Chem. 266:1085-1091, 1991). After blocking with PBS containing 2% skim milk and 1% BSA, the sheet was incubated with the first antibody [1 μg/ml of 22C11; 1/1000 dilution of anti-Go α monoclonal antibody GC/2 (DuPont-New England Nuclear); 1/1000 dilution of 1C1, a monoclonal antibody against the C-terminal peptide 677-695 of APP695 ] for 4 h, and then exposed to horseradish peroxidase-conjugated goat IgG reactive for mouse or rabbit immunoglobulins for 2-4 h at room temperature. The antigenic bands were detected with an ECL detection kit (Amersham). YL1/2 (SERA Lab), an anti-tubulin antibody, was used at 1:500 dilution for immunodetection.
In this experiment, solubilized brain membranes were incubated with 22C11-coated beads in the presence of 10 μM peptide 20 (SEQ ID NO: 1; 2nd and 5th lanes) or 10 μM of the control peptide, peptide677-695 of APP (SEQ ID NO: 13; 3rd and 6th lanes), or in the absence of both of these peptides (1st and 4th lanes). In this experiment, an anti-mouse IgG antibody different from that used in (a) was employed.

GS = test: Effect of peptide on G proteins other than Go: GS; format: biochemical; details: data not shown
Text: as §1

Gi2 = test: Effect of peptide on G proteins other than Go: Gi2; format: biochemical; details: data not shown
Text: as §1

c-Ki-ras p21 = test: Effect of peptide on low molecular weight G protein c-Ki-ras p21; format: biochemical; details: data not shown
Text: as §1

Gi3 = test: Effect of peptide on G proteins other than Go: Gi3; format: biochemical; details: data not shown
Text: as §1

smg p25A = test: Effect of peptide on low molecular weight G protein smg p25A; format: biochemical; details: data not shown
Text: as §1

Go [4] = molecular target: T1, Go; test: Storage stability of the Go-activating ability of the peptide; format: physicochemical, bovine; details: storage at either -4° C. or -20° C.
Gi1 = test: Effect of peptide on G proteins other than Go: Gi1; format: biochemical; details: data not shown
Text: as §1

[5] = molecular target: Trimeric Go purified from bovine brain (bovine) (UniProt P08239)
[6] = 10 nM Go, various peptide concentrations, 2 min, FIG. 1(d)

T1 sequence (P08239 whole entry): as the sequence (P08239 whole entry) above
T1 sequence (P62871 whole entry partner): as the sequence (P62871 whole entry partner) above
T1 sequence (P63212 1-68 partner): as the sequence (P63212 1-68 partner) above

**Q.** Which “Go-activator function of peptide 20 variants (GTPγS binding to Go at 2 min)” value (Go [1]; [6]) does the source give for GVVEVDAAVTPEERHLSK [HH-deleted] here?
**A.** nullified Go -activator function

**Q.** “recombinant full-length APP695 expressed in Sf9 cells (receptor)” was tested. Which amount of reconstituted Go precipitated [2] did it give?
**A.** 0.05 µg/tube and 0.1 µg/tube

**Q.** How did the “Go-activator function of peptide 20 variants (GTPγS binding to Go at 2 min)” value (Go [1]; [6]) turn out when HGVVEVDAAVTPEERHLSK [H-deleted] was run?
**A.** nullified Go -activator function

**Q.** With “TVIVITLVML [APP(639-648), a portion of the transmembrane region of APP]” as the molecule, how does the “effect on Go (GTPγS binding)” value [3] read?
**A.** without effect on Go

**Q.** Which “22C11-mediated co-precipitation of Go” value (APP-Go complex) does the source give for “MQQNGYENPTYKFFEQMQN [APP(677-695), peptide corresponding to C-terminal residues 677-695 of APP695, used as control peptide]” here?
**A.** no discernable effect

**Q.** What does the source list for “TVIVITLVMLHHGVVEVDAAVTPEERHLSK [peptide 20 linked to a portion of the APP transmembrane region]”?
**A.** effect on Go compared with peptide 20 (Go [1]; absence of phospholipids, presence of 0.07% CHAPS, FIG. 1(e)): no more potent than peptide 20; potency in stimulating Go relative to peptide 20 [3]: 10 times

**Q.** Which “stimulation of GS” value (GS) does the source give for “HHGVVEVDAAVTPEERHLSK [peptide 20, peptide corresponding to the His657-Lys676 region of APP]” here?
**A.** not stimulated

**Q.** And the “stimulation of Gi2” value (Gi2)?
**A.** not stimulated

**Q.** What about the “stimulation of c-Ki-ras p21” value (c-Ki-ras p21) of the same molecule?
**A.** not stimulated

**Q.** What about the “22C11-mediated co-precipitation of Go” value (APP-Go complex) of the same molecule?
**A.** prevents the 22C11-mediated co-precipitation of Go

**Q.** And the “precipitation of APP by 22C11” value (APP-Go complex)?
**A.** did not affect the precipitation of APP by 22C11

**Q.** And the “stimulation of Gi3” value (Gi3)?
**A.** not stimulated

**Q.** And the “stimulation of smg p25A” value (smg p25A)?
**A.** not stimulated

**Q.** What about the “ability to activate Go during storage” value (Go [4]) of the same molecule?
**A.** gradually decreased during storage

**Q.** What about the “rate constant of GTPγS binding to Go” value (Go [1]; 10 nM Go, increasing peptide concentrations, FIG. 1(d)) of the same molecule?
**A.** stimulated the rate constant of GTPγS binding to Go in a dose-dependent manner

**Q.** And the “stimulation of GTPγS binding to Go” value (Go [1]; low (≤100 nM) or high (≥10 mM) Mg2+ concentrations)?
**A.** could not be observed

**Q.** What about the “stimulation of GTPγS binding to Go” value (Go [1]; purified trimeric go) of the same molecule?
**A.** 2-3 fold

**Q.** What about the “stimulation of Gi1” value (Gi1) of the same molecule?
**A.** not stimulated

**Q.** HHGVVEVDAAVTPEE [RHLSK-deleted] was tested. Which “potency relative to peptide 20 in stimulating Go” value (Go [1]; [6]) did it give?
**A.** several times less potent than peptide 20

B1: transmembrane region-connected peptide 20 (peptide)
peptide: TVIVITLVMLHHGVVEVDAAVTPEERHLSK
**Q.** With B1 as the molecule, how does the GTPγS binding to Go reconstituted in phospholipid vesicles (times greater potency than peptide 20) [5] read?
**A.** 10
